Values quoted from earlier work as cited in patent publication US5397694A, “Protease inhibitor” (Merck Patent GmbH, priority 1989, dated 1995).

B1: Eglin C: Eglin variant with tyrosine where Eglin B has histidine (protein, UniProt P01051 1-70, looked up)
Eglin C: TEFGSELKSFPEVVGKTVDQAREYFTLHYPQYDVYFLPEGSPVTLDLRYNRVRVFYNPGTNVVNHVPHVG
In the case of B1, the “isoelectric point (pI), published report” value is listed as 6.45.
